These are literature values, as cited in paper PMC4856733.

This series addresses vinculin tail tail (Homo sapiens) (UniProt P18206).

In general, Kd refers to the equilibrium constant for the complex coming apart. As to “vinculin head head (from UniProt P18206)”, the Kd was below 1 nM.
